Our source for the Kd values is US20250333542A1 (Hoffmann-La Roche, published 2025).

Assay [1] has as its target T1, Fc (kih)-IFNGR1 monomer (P1AF7104) (UniProt P15260 18-245).
T1 construct: Used as the soluble analyte in SPR; not shown: Fc (kih) part
T1 sequence (P15260 whole entry, species assumed, looked up): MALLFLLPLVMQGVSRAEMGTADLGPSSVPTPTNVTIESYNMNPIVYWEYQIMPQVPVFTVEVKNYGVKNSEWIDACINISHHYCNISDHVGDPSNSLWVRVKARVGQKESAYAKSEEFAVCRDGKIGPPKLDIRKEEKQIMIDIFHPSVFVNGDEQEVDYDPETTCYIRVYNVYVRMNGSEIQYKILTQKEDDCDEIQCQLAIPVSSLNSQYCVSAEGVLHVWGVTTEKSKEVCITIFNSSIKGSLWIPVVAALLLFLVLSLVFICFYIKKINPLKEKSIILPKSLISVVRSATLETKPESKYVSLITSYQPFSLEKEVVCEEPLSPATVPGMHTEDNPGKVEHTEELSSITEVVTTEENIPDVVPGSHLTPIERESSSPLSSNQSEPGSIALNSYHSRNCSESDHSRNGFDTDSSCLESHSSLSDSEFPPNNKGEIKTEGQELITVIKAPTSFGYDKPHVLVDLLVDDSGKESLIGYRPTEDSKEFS
Kind of assay: SPR (Biacore 8K, 25 C), biotinylated Fc(kih)-IFNG captured on SA chip, Fc(kih)-IFNGR1 monomer as analyte, 1:1 Langmuir fit. The procedure:
(§1) The binding behaviour of IFNG variants towards IFNGR1 and IFNGR1/2 was assessed by surface plasmon resonance (SPR). SPR experiments were performed on a Biacore 8K device at 25° C. with HBS-EP as running buffer (0.01 M HEPES pH 7.4, 0.15 M NaCl, 3 mM EDTA, 0.005% Surfactant P20, Biacore, Freiburg/Germany). […] IFNG mutation series compounds were immobilised at a concentration of 25 nM, 80 s contact time and 10 μL/min. Immobilisation levels up to 450 resonance units (RU) were used. Subsequently, decreasing concentrations (800-3.13 nM) of Fc (kih)-IFNGR1 monomer or Fc (kih)-IFNGR1/2 heterodimer were injected as a second analyte with a flow rate of 30 μL/min over 120 seconds and dissociation was monitored for 500 s. Bulk refractive index differences were corrected for by subtracting the response obtained in a reference flow cell, where no protein was immobilised. […]
(§2) To further evaluate analogous properties of wild-type IFNG and our engineered compound with C-terminal KRKRP (SEQ ID NO:1), we determined the binding affinities of IFNG variants towards IFNG receptors by SPR. […] As second analytes, either IFNGR1 monomer (P1AF7104) or IFNGR1/2 heterodimer (P1AF8126) were passed through the flow cell at different concentrations and dissociation constants (KD) were calculated based on observed association and dissociation behaviour.
For orientation: SPR reads the build-up and loss of mass on a sensor chip optically.

Assay [2] deals with T2, Fc (kih)-IFNGR1/2 heterodimer (P1AF8126) (UniProt P15260 18-245; P38484 28-247, limits assumed).
T2 construct: Used as the soluble analyte in SPR; also called Fc (kih)-IFNGR1/R2 heterodimer; IFNGR1/R2; not shown: Fc (kih) chain
T2 sequence (looked up) 1: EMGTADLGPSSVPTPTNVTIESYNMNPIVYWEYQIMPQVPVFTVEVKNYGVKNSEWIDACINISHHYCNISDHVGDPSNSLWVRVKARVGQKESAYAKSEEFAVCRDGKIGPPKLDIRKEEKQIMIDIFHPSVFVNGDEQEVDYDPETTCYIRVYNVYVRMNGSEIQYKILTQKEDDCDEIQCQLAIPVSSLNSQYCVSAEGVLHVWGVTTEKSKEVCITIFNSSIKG
T2 sequence (looked up) 2: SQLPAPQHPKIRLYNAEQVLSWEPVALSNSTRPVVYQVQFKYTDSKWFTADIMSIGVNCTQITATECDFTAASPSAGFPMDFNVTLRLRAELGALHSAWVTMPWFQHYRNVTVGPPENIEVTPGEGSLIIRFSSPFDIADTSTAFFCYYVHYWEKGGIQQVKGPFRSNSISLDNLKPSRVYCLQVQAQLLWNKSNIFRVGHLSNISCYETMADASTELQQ
Kind of assay: SPR (Biacore 8K, 25 C), biotinylated Fc(kih)-IFNG captured on SA chip, Fc(kih)-IFNGR1/2 heterodimer as analyte, 1:1 Langmuir fit; IFNG KRKRP variant, IFNGR1/2 heterodimer as analyte. On the procedure: as §1, §2

B1: Fc (kih)-IFNG KRKRP (P1AG1550) (Fc fusion)
chain: QDPYVKEAENLKKYFNAGHSDVADNGTLFLGILKNWKEESDRKIMQSQIVSFYFKLFKNFKDDQSIQKSVETIKEDMNVKFFNSNKKKRDDFEKLTNYSVTDLNVQRKAIHELIQVMAELSPAAKTGKRKRP
modifications: biotinylated (site not stated)
notes: Produced as a C-terminal Fc (kih)-fusion protein; not shown: Fc (kih) chain (knob: S354C, T366W; hole: Y349C, T366S, L368A, Y410V as printed) and any linker
By Kd is commonly meant the free concentration of one partner at which half of the binding sites on the other are occupied at equilibrium, for simple one-to-one binding. A high value points to a looser complex. B1: the values for the Kd in assay [1] and in assay [2] were 154 nM and 54.4 nM, respectively.
